Data as given in patent US20250076311A1 (Chugai, published 2025).
Changes are numbered by the printed parent chain.

B1: MS1032LO06-SG1016 (antibody, human IgG1, kappa)
heavy: QVTLKESGPVLVKPTETLTLTCTVSGIDLSHDDISWVRQAPGKGLEWVGIISYAGSTYYASWAKGRLTISKDTSKNQVVLTMTNMDPVDTATYYCARGVPAYSHGGDLWGQGTLVTVSSASTKGPSVFPLAPSSKSTSGGTAALGCLVKDYFPEPVTVSWNSGALTSGVHTFPAVLQSSGLYSLSSVVTVPSSSLGTQTYICNVNHKPSNTKVDKKVEPKSCDKTHTCPPCPAPELLNGPSVFLFPPKPKDTLMISRTPEVTCVVVDVSEEDPEVKFNWYVDGVEVHNAKTKPREEQYNSTYRVVSVLTVLHRDWLNGKEYKCKVSNKALPKPIEKTISKAKGQPREPQVYTLPPSREEMTKNQVSLTCLVKGFYPSDIAVEWESNGQPENNYKTTPMVLKSDGSFFLYSKLTVDKSRWQQGNVFSCSVMHEALHAHYTQKSLSLSP
light: DIVMTQSPATLSLSPGERATLSCTSSQSVYHANWLSWFQQKPGQPPKLLIYWASTLAYGVPSRFSGSGSGTDFTLTISSLQPEDAATYYCAGGYGGGRYAFGQGTKVEIKRTVAAPSVFIFPPSDEQLKSGTASVVCLLNNFYPREAKVQWKVDNALQSGNSQESVTEQDSKDSTYSLSSTLTLSKADYEKHKVYACEVTHQGLSSPVTKSFNRGEC
notes: tied to rows r8/r26 by row order only; also called MS103205H795-SG1016; copies: 2 + 2
B2: M103205H795-MY065/M103202L889-SK1 (antibody, human IgG1, kappa, name in EU numbering)
heavy: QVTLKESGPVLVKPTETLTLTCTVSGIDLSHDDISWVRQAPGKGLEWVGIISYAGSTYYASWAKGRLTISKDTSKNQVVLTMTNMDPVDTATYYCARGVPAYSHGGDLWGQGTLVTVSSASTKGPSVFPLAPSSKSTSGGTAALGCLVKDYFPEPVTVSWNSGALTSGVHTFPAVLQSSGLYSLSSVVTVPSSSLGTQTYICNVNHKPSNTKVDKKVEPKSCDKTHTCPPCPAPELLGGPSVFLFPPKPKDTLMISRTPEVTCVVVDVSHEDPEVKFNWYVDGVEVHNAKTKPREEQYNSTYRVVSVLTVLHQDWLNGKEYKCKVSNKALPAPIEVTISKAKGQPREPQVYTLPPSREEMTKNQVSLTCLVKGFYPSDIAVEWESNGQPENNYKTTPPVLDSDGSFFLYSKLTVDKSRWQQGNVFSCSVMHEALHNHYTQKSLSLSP
light: B1 light
B3: MS1032LO19-SG1074 (antibody, name in EU numbering)
heavy: QVQLVESGGGLVQPGGSLRLSCAVSGIDLSHDDISWVRQAPGKGLEWVSIISYAGSTYYASWAKGRLTISKDTSKNQVVLTMTNMDPVDTATYYCARGVPAYSHGGDLWGQGTLVTVSSASTKGPSVFPLAPSSKSTSGGTAALGCLVKDYFPEPVTVSWNSGALTSGVHTFPAVLQSSGLYSLSSVVTVPSSSLGTQTYICNVNHKPSNTKVDKKVEPKSCDKTHTCPPCPAPELLNGPSVFLFPPKPKDTLMISRTPEVTCVVVDVSDEDPEVKFNWYVDGVEVHNAKTKPREELYNSTYRVVSVLTVLHRDWLNGKEYKCKVSNTALPKPIEKTISKAKGQRREPQVYTLPPSREEMTKNQVSLTCLVKGFYPSDIAVEWESNGQPENNYKTTPPVLDSDGSFFLYSKLTVDKSRWQQGNVFSCSVLHEALHAHTTRKELSLSP
light: B1 light with S25T, A32E
notes: tied to rows r15/r33 by row order only; also called MS103240H795-SG1074
B4: MS1032LO06-SG1029 (antibody, human IgG1, kappa)
heavy: B1 heavy with E270D, Q297L, M398P, K401D, D415K
light: B1 light
notes: tied to rows r9/r27 by row order only; also called MS103205H795-SG1029; copies: 2 + 2
B5: M103205H795-MY211/M103202L889-SK1 (antibody, human IgG1, kappa, name in EU numbering)
heavy: B1 heavy with S241V, E270D, R313Q, K328T, M398P, K401D, A436N
light: B1 light
notes: Fc variant of MS1032LO06-SG1; positions in EU numbering
B6: M103205H795-MY198/M103202L889-SK1 (antibody, human IgG1, kappa, name in EU numbering)
heavy: B1 heavy with S241V, E270D, R313Q, K401D, A436N
light: B1 light
notes: as for B5
B7: M103205H795-MY066/M103202L889-SK1 (antibody, human IgG1, kappa, name in EU numbering)
heavy: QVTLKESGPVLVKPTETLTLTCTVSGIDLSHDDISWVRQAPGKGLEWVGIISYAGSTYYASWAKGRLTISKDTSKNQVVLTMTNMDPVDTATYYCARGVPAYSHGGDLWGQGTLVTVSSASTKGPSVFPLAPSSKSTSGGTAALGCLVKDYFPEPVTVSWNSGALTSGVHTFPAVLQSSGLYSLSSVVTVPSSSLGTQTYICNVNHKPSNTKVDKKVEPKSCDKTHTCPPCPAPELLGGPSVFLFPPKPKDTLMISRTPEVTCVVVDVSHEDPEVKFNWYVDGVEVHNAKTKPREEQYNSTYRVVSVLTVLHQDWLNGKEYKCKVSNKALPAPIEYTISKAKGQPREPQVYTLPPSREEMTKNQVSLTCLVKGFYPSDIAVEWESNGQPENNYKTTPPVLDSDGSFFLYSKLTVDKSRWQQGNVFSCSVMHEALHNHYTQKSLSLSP
light: B1 light
B8: M103205H795-MY012/M103202L889-SK1 (antibody, human IgG1, kappa, name in EU numbering)
heavy: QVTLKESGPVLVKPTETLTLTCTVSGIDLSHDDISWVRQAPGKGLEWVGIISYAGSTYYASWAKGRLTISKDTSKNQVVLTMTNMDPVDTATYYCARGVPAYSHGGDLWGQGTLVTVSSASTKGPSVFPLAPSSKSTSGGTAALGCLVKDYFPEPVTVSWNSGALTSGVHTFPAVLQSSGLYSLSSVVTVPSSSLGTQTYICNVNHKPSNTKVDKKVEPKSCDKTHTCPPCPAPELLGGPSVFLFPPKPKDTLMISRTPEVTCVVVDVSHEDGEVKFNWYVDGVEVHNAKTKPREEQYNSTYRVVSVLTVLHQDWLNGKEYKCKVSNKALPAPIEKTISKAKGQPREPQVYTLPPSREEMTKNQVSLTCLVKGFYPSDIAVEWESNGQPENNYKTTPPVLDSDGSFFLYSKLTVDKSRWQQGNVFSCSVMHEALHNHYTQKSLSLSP
light: B1 light
notes: Substitution introduced into M103205H795-SG1; EU numbering
B9: M103205H795-MY067/M103202L889-SK1 (antibody, human IgG1, kappa, name in EU numbering)
heavy: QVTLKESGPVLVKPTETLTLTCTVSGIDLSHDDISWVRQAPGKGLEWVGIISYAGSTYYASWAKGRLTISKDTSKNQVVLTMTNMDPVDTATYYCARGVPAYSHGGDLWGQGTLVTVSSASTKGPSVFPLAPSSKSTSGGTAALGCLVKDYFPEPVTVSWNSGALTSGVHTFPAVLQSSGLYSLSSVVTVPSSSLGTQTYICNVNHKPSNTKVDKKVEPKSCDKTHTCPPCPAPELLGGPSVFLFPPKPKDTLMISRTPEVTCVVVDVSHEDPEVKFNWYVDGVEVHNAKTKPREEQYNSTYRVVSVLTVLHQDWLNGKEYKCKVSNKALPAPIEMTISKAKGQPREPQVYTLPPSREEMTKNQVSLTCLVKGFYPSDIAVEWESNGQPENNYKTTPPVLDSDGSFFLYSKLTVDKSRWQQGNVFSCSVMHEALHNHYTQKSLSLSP
light: B1 light
B10: M103205H795-MY015/M103202L889-SK1 (antibody, human IgG1, kappa, name in EU numbering)
heavy: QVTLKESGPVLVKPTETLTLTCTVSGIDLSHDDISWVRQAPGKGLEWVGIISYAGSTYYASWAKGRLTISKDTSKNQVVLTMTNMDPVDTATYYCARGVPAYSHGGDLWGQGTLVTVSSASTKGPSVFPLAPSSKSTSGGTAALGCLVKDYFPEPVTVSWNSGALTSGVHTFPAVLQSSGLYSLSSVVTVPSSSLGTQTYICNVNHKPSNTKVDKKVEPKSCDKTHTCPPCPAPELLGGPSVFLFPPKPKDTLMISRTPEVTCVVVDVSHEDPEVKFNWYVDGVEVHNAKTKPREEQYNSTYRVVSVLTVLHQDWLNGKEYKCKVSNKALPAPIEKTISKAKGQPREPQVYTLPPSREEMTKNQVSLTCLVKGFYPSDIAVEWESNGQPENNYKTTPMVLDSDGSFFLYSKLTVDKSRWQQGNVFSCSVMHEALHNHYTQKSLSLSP
light: B1 light

Key:
[1] = molecular target: T1, human FcγRIIaH extracellular domain with C-terminal His-tag (human, UniProt P12318 34-217); assay: SPR, KD(parent SG1)/KD(variant)
T1 construct: also called human FcgRIIaH; FcγRIIa (type H)
T1 sequence: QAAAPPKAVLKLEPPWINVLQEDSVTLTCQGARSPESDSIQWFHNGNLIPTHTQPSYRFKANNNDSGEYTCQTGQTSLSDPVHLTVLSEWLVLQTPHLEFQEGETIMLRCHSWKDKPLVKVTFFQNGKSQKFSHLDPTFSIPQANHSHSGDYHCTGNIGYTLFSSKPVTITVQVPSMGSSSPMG

[2] = molecular target: T2, human FcγRIIb extracellular domain with C-terminal His-tag (human, UniProt P31994 43-217); assay: SPR, KD(parent SG1)/KD(variant)
T2 construct: also called human FcgRIIb
T2 sequence: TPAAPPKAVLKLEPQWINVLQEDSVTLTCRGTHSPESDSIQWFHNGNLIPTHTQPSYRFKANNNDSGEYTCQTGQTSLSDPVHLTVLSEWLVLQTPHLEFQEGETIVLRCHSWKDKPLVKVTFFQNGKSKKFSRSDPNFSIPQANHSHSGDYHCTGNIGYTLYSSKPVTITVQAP

[3] = molecular target: T3, cynomolgus monkey FcγRIIIaS extracellular domain with C-terminal His-tag (cynomolgus monkey, UniProt Q8SPW2 21-206 at identity 1.00)); assay: SPR, KD(parent SG1)/KD(variant)
T3 construct: also called cyno FcgRIIIaS; cynoFcγRIIIaS
T3 chain: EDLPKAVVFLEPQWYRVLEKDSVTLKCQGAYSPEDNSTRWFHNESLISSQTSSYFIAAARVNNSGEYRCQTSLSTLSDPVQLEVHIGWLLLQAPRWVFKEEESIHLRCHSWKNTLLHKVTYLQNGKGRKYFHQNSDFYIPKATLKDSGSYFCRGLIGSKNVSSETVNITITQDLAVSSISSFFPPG

[4] = molecular target: T4, human FcγRIIaR extracellular domain with C-terminal His-tag (human, UniProt P12318 34-217); assay: SPR, KD(parent SG1)/KD(variant)
T4 construct: also called human FcgRIIaR; FcγRIIa (type R)
T4 chain: T1 sequence with H134R

[5] = molecular target: T5, cynomolgus monkey FcγRIIIaS extracellular domain, His-tagged (cynomolgus monkey, UniProt A3RFZ7 21-206 (rhesus entry)); assay: SPR (BIACORE), antibody captured on chip, FcγR as analyte, 25 C; KD of M103205H795-SG1 divided by KD of the variant
T5 construct: also called cyno FcγRIIIaS; cynoFcγRIIIaS; not shown: His-tag added to the C-terminus
Description: (§1) The kinetic analysis of interactions between these antibodies and FcγR was carried out using BIACORE® T200 or BIACORE® 4000 (GE Healthcare). HBS-EP+ (GE Healthcare) was used as the running buffer, and the measurement temperature was set to 25° C. […] After the measurement, the antibody captured on the chip was washed off by allowing reaction with 10 mM glycine-HCl, pH1.5 and 25 mM NaOH so that the chip was regenerated and used repeatedly. The sensorgrams obtained as measurement results were analyzed by the 1:1 Langmuir binding model using the BIACORE® Evaluation Software to calculate the binding rate constant ka (L/mol/s) and dissociation rate constant kd (1/s), and the dissociation constant KD (mol/L) was calculated from these values. […] Regarding such interactions, KD values were calculated using the following 1:1 binding model described in BIACORE® T100 Software Handbook BR1006-48 Edition AE.

[6] = molecular target: T6, human FcγRIIb extracellular domain with C-terminal His-tag (human, UniProt P31994 43-217); assay: SPR (BIACORE), antibody captured, FcgR analyte
T6 construct: also called human FcgRIIb; not shown: His-tag added to the C-terminus
T6 sequence: T2 sequence

[7] = molecular target: T7, human FcγRIIIaV extracellular domain with C-terminal His-tag (human, UniProt P08637 17-208); assay: SPR (BIACORE), antibody captured, FcgR analyte
T7 construct: also called human FcgRIIIaV; not shown: His-tag added to the C-terminus

[8] = molecular target: T8, human FcγRIIaR extracellular domain with C-terminal His-tag (human, UniProt P12318 34-217); assay: SPR (BIACORE), antibody captured, FcgR analyte
T8 construct: also called human FcgRIIaR; FcγRIIa type R; not shown: His-tag added to the C-terminus
T8 chain: T1 sequence with H134R

[9] = molecular target: T9, cynomolgus monkey FcγRIIa2 extracellular domain with C-terminal His-tag (cynomolgus monkey); assay: SPR (BIACORE), antibody captured, FcgR analyte
T9 construct: also called cyno FcgRIIa2; cynoFcγRIIa2; not shown: His-tag added to the C-terminus
T9 chain: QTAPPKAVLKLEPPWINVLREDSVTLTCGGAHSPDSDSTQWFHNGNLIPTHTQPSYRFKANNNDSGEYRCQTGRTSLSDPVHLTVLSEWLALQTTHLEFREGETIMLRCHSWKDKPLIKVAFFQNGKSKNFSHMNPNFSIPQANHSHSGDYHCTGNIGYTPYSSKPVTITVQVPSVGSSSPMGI

[10] = molecular target: T10, cynomolgus monkey FcγRIIIaS extracellular domain with C-terminal His-tag (cynomolgus monkey, UniProt A3RFZ7 21-206 (rhesus entry)); assay: SPR (BIACORE), antibody captured, FcgR analyte
T10 construct: also called cyno FcgRIIIaS; cynoFcγRIIIaS; not shown: His-tag added to the C-terminus

[11] = molecular target: T11, human FcγRIIaR extracellular domain, His-tagged (human, UniProt P12318 34-217); assay: SPR Biacore, KD(SG1)/KD(variant)
T11 construct: also called human FcγRIIa (type R); FcgRIIaR; not shown: C-terminal His-tag
T11 chain: T1 sequence with H134R
Description: as §1

[12] = molecular target: T12, human FcγRIIb extracellular domain, His-tagged (human, UniProt P31994 43-217); assay: SPR Biacore, KD(SG1)/KD(variant)
T12 construct: also called FcgRIIb (human); not shown: C-terminal His-tag
T12 sequence: T2 sequence
Description: as §1

T7 sequence (P08637 17-208 F176V): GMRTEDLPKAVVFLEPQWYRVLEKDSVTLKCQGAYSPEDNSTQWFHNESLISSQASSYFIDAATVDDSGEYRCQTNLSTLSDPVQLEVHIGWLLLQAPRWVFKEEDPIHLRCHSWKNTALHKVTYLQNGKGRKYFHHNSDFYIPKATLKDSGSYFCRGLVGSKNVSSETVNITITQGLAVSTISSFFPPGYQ

| Binder | KD fold (SG1 = 1) [1] [fold] | KD fold (SG1 = 1) [2] [fold] | KD fold (SG1 = 1) [3] [fold] | KD fold (SG1 = 1) [4] [fold] | KD fold (SG1 = 1) [5] [fold] | also measured |
| --- | --- | --- | --- | --- | --- | --- |
| B1 | 1.8 | 0.7 | 0.17 | 1.2 |  |  |
| B2 |  |  |  |  | 3.27 |  |
| B3 | 1.2 | 10.7 | 0.19 | 1.1 |  |  |
| B4 | 1.5 | 5.9 | 0.05 | 0.6 |  |  |
| B5 |  |  |  |  |  | Kd [6]: 820 nM; Kd [7]: 48000 nM; Kd [8]: 1300 nM; Kd [9]: 580 nM; Kd [10]: 3000 nM |
| B6 |  |  |  |  |  | Kd [7]: 6900 nM; Kd [9]: 330 nM; Kd [10]: 2700 nM |
| B7 |  |  |  |  | 2.25 |  |
| B8 |  |  |  |  |  | KD fold (SG1 = 1) [11]: 4 fold; KD fold (SG1 = 1) [12]: 5.1 fold |
| B9 |  |  |  |  | 3.6 |  |
| B10 |  |  |  |  | 3.6 |  |
